Legend:
JK18 [1] = assay: FP; direct titration
JK16 [2] = assay: FP; direct titration
JK18 [3] = assay: FP
JK16 [4] = assay: FP

Kd (JK18 [1]): 4.1 µM
Kd (JK16 [2]): 6.7 µM
Kd (JK18 [3]): 4.1 µM
Kd (JK16 [4]): 6.7 µM
B1: c-Jun N-terminal kinase 3 (enzyme)
chain: MSLHFLYYCSEPTLDVKIAFCQGFDKQVDVSYIAKHYNMSKSKVDNQFYSVEVGDSTFTVLKRYQNLKPIGSGAQGIVCAAYDAVLDRNVAIKKLSRPFQNQTHAKRAYRELVLMKCVNHKNIISLLNVFTPQKTLEEFQDVYLVMELMDANLCQVIQMELDHERMSYLLYQMLCGIKHLHSAGIIHRDLKPSNIVVKSDCTLKILDFGLARTAGTSFMMTPYVVTRYYRAPEVILGMGYKENVDIWSVGCIMGEMVRHKILFPGRDYIDQWNKVIEQLGTPCPEFMKKLQPTVRNYVENRPKYAGLTFPKLFPDSLFPADSEHNKLKASQARDLLSKMLVIDPAKRISVDDALQHPYINVWYDPAEVEAPPPQIYDKQLDEREHTIEEWKELIYKEVMNSEEKTKNGVVKGQPSPSGAAVNSSESLPPSSSVNDISSMSTDQTLASDTDSSLEASAGPLGCCR
